Numbering of substitutions follows the chain as printed. Each block holds one molecule with its values, some of them ahead of it.
How the values were obtained:
[1] = biological target: T1, TG2 activity in HepG2 cell homogenate (Homo sapiens, UniProt P21980); assay: 3H putrescine incorporation TG activity assay in HepG2 cell homogenate; format: biochemical
T1 construct: endogenous in cells; host or cells: HepG2
T1 sequence (P21980 1-687): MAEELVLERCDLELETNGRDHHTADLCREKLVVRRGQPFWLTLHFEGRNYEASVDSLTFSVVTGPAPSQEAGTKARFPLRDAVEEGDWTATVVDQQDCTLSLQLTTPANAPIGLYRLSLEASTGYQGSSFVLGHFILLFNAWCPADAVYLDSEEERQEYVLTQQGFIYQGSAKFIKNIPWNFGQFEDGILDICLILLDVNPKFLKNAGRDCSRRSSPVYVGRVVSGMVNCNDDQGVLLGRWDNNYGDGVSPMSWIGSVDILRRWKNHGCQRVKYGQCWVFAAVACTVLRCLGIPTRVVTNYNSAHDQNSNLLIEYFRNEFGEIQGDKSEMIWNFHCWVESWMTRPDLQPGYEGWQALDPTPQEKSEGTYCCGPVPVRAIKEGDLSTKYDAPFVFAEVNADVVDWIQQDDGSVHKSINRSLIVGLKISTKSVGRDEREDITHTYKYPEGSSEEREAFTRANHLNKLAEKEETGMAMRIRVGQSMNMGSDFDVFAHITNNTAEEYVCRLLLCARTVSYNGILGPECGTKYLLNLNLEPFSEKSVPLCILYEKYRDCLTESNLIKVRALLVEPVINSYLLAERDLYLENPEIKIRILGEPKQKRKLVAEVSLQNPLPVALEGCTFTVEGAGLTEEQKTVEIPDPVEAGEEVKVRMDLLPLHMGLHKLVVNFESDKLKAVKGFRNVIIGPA
Description: A: Hep2G cells were lysed and 45 ug of protein mixed with 750 ng of IgG from AB1, DH2, DD9, BB7, DC1 and EH6 for 20 minutes. This was subsequently assayed using the ^3H Putrescine incorporation TG activity assay with sampling over 1 hour. The rate of reaction was calculated and expressed as a percentage of the same lysate incubated with a random antibody (MAB002). Data represents the mean percentage inhibition ±SEM from 2 separate experiments done in duplicate. *p<0.05
HepG2 cells were kindly supplied by Richard Ross (University of Sheffield). Cells were routinely grown at 37° C. in a 95% humidified atmosphere of 5% CO2 in DMEM/4.5 g per liter glucose supplemented with 10% foetal calf serum (FCS), 100 IU penicillin and 100 μg/ml streptomycin, 2 mM I-glutamine (all GIBCO). Two million cells were seeded on a 10 cm dishes and grown for 48 hours. Cells were lysed in 250 μl of STE buffer (0.32M sucrose, 5 mM Tris, 1 mM EDTA containing protease inhibitors Phenylmethylsulphonyl fluoride (1 mM), benzamidine (5 mM), and leupeptin (10 μg/ml) and sonicated on ice to produce a cell lysate usable in TG2 activity assay.
The same protocol was used to assess TG inhibition in cell lysates by replacing the 25 μl of recombinant protein with 25 μl of cell lysate.

human TG2 = biological target: T2, human TG2 (Homo sapiens, UniProt P21980); assay: 3H-putrescine incorporation TG activity assay with recombinant human TG2; format: biochemical; settings: for hybridoma supernatant ability to inhibit TG2 activity: initial screen of conditioned medium, 100 ng of TG2
T2 sequence (P21980 1-687): T1 sequence (P21980 1-687)
Description: To determine an IC50 value for each antibody against human, rat and mouse the ^3H Putrescine assay was used. 100 ng of human TG2 or 25 ng of mouse and rat TG2 was used to generate a reaction where approximately 3000 cpm of Putrescine were incorporated per hour in 10 ul of the reaction mixture. Serial dilutions of each antibody were then applied starting from adding 500 ng (5 ug/ml final concentration) to the reaction mixture and incubated with the TG2 for 20 minutes prior to activating the reaction. IC50 values were calculated by determining the concentration at which the enzymatic rate of reaction was reduced by 50% using an appropriate curve fit in graphpad prism. Values are expressed as the amount of IgG in […] in the reaction that would inhibit 1 ng of TG2.
TG activity is measured by the Ca^2+ dependent incorporation of ^3H-putrescine into N′,N′-dimethylcasein. Recombinant human TG2 (100 ng) was pre-incubated for twenty minutes at room temperature with the test sample (conditioned medium or purified IgG) before starting the reaction. Twenty-five μl of reaction mix (5 μl of 25 mM CaCl2, 5 μl of 40 mM dithiothreitol, 5 μl ^3H-putrescine mix, and 10 μl 25 mg/ml of N,N′ dimethylcasein (replace 25 mM CaCl2 with 100 mM EDTA for a non-enzymatic control) was added to start the reaction and the samples incubated at 37° C. for up to 1 hour. Aliquots of 10 μl were spotted onto a strip of 3 MM Whatman filter paper and plunged immediately into ice-cold 10% trichloroacetic acid (TCA) in order to precipitate the cross-linked proteins typically at time 0, 10, 30 and 60 minutes into the reaction. After three extensive washes in ice-cold 5% TCA followed by 3 rinses with ice-cold 95% ethanol, the air dried filter was counted in 2 ml of scintillation fluid (Ultima Gold Packard, Perkin Elmer). The rate of reaction was calculated. 1 TG unit is equivalent to the incorporation of 1 nmol of putrescine per hour at 37° C.

[2] = biological target: T3, extracellular TG2 in human HK-2 cells (Homo sapiens, UniProt P21980); assay: Extracellular TG activity in HK-2 cells, biotin cadaverine incorporation into fibronectin (Example 1); format: cell-based
T3 construct: endogenous in cells; host or cells: HK-2 (kidney proximal tubular epithelium)
T3 sequence (P21980 1-687): T1 sequence (P21980 1-687)
Description: HK2 cells were plated onto fibronectin and incubated for 2 hours in the presence of 0.1M biotin cadaverine with either 4 ng/μl of human anti-TG2 antibody (AB1) (part A), 4 ng/μl of human anti-TG2 antibody (DC1) (part B) or 400 μM of the site-specific pan TG inhibitor 1,3-Dimethyl-2-[(2-oxo-propyl)thio]imidazolium chloride. […] Changes in optical density were measured at 450 nm in a 96 well plate reader. Data represents mean OD at 450 nm corrected to 1 mg of cell protein. n=6 wells per experimental group.
Extracellular TG activity was measured by modified cell ELISA. HK-2 epithelial cells were harvested using 0.1M EDTA or 0.25% trypsin/EDTA and plated at a density of 8×10^4 cells/well in serum free medium onto a 96 well plate that had been coated overnight with 100 μl/well of fibronectin (5 μg/ml in 50 mM Tris-HCl pH 7.4) (Sigma, Poole UK). Cells were allowed to attach for 2.5 h at 37° C. in the presence of the 0.1 mM biotin cadaverine [N-(5 amino pentyl biotinamide) trifluoroacetic acid] (Molecular Probes, Eugene Oreg., USA). Plates were washed twice with 3 mM EDTA/PBS and cells removed with 0.1% (w/v) deoxycholate in 5 mM EDTA/PBS. The supernatant was collected and used for protein determination. […] The reaction was stopped with 50 μl 2.5 M H2SO4 and the absorbance read at 450 nm.

B1: BB7: murine monoclonal anti-TG2 IgG, Group 1; VL SEQ ID NO: 60, VH SEQ ID NO: 61 (antibody, V domains shown)
VH: AVQLVESGGGLVKPGGSLKLSCAASGIIFSSSAMSWVRQTPEKRLEWVATISSGGRSTYYPDSVKGRFTVSRDSAKNTLYLQMDSLRSEDTAIYYCAKLISPYWGQGTTLTVSS
VL: AIKMTQSPSSMYASLGERVIITCKASQDINSYLTWFQQKPGKSPKTLIYLTNRLMDGVPSRFSGSGSGQEFLLTISGLEHEDMGIYYCLQYVDFPYTFGGGTKLEIK
modifications: BB-7 heavy chain variable region; BB-7 light chain variable region
inhibition of TG2 activity in HepG2 homogenate ([1]; 0.5 μg of antibody, 45 ug lysate protein): 90% | hybridoma supernatant ability to inhibit TG2 activity (human TG2): able to inhibit TG2 activity

B4: AG9: murine TG2 inhibitory monoclonal antibody; VH and VK in FIG. 23 (antibody, V domains shown)
VH: EVQLQQSGPELVKPGASVKMSCRASGYTFTTYVIHWVKQKPGQGLEWIGYINPYNDGARYNEKFKGKATLTSDKSSTTAYMELSSLTSEDSAVYYCARLSSDYWGQGTTLTVSS
VL: DVLMTQNPLSLPVSLGDQASISCRSSRSIEHSNGNTYLEWYLQKPGQSPKFLIYKVSNRFSGVPDRFSGSGSGTDFTLRISSVEAEDLGVYYCFQGSHVPFTFGGGTKLEIK
hybridoma supernatant ability to inhibit TG2 activity (human TG2): able to inhibit TG2 activity

B5: AH3: murine TG2 inhibitory monoclonal antibody; VH and VK in FIG. 24 (antibody, V domains shown)
VH: B4 VH
VL: B4 VL
hybridoma supernatant ability to inhibit TG2 activity (human TG2): able to inhibit TG2 activity

Results, then the molecule that gave them:

hybridoma supernatant ability to inhibit TG2 activity (human TG2): able to inhibit TG2 activity
B2: EH6: murine monoclonal anti-TG2 IgG, Group 1; VH and VK in FIG. 22 (antibody, V domains shown)
VH: B4 VH with R23K, T31S, I34M, Y50F, A58T, R59K, S75A, L99F, D102G
VL: B4 VL with N7T, R27Q, E30V, F51L, R79K, S82R, E84G, F94L, G96V, G105S

hybridoma supernatant ability to inhibit TG2 activity (human TG2): able to inhibit TG2 activity
B3: JE12: murine monoclonal anti-TG2 IgG, Group 1; VH and VK in FIG. 21 (antibody, V domains shown)
VH: B4 VH with R23K, T28R, T31S, I34M, P41S, R59K, T77S
VL: B4 VL with R27Q, S32I, S82R, V90I

inhibition of extracellular TG activity ([2]; 4 ng/ul in the culture media): 55% | inhibition of extracellular TG2 in human HK-2 cells (in words) ([2]; applied to the culture media): able to inhibit TG2 successfully | inhibition of TG2 in human Hep2G cells (in words) [1]: able to inhibit TG2 successfully | IC50 against human TG2 (human TG2; amount of IgG in the reaction that would inhibit 1 ng of TG2, 100 ng human TG2): 0.011 mg/L | hybridoma supernatant ability to inhibit TG2 activity (human TG2): able to inhibit TG2 activity
B6: DC1: murine monoclonal anti-TG2 IgG, Group 1; VL SEQ ID NO: 70, VH SEQ ID NO: 71 (antibody, V domains shown)
VH: EVQLVESGGGLVKPGGSLKLSCAASGFTLSTHAMSWVRQTPEKRLEWVATISSGGRSTYYPDSVKGRFTISRDNVKNTLYLQLSSLRSEDTAVYFCARLISTYWGQGTTLTVSS
VL: DITMTQSPSSIYASLGERVTITCKASQDINSYLTWFQQKPGKSPKILIYLVNRLVDGVPSRFSGSGSGQDYALTISSLEYEDMGIYYCLQYDDFPYTFGGGTKLEIK
modifications: DC-1 heavy chain variable region; DC-1 light chain variable region

Source: US10005846B2, “Anti-transglutaminase 2 antibodies” (MEDICAL RESEARCH COUNCIL TECHNOLOGY, priority 2012, dated 2018)
